Results published in paper PMC7405475.

Target: His6-maltose binding protein-SARS-CoV-2 N3 (spacer B/N3 region, residues 365-419) (SARS-CoV-2) (UniProt P0DTC9)
Assay: SEC-MALS

Work on “His6-maltose binding protein-SARS-CoV-2 N3 (spacer B/N3 region, residues 365-419) (from UniProt P0DTC9 365-419) (domain or fragment)” yielded a stoichiometry N of 2.
